Experimental data: article PMC2387164, “A GATA4/WT1 cooperation regulates transcription of genes required for mammalian sex determination and differentiation”
One block for each molecule: values may come before it.

Assays:
[1] = target: WT1(+KTS) overexpressed in HeLa cells (mouse) (UniProt P22561)
WT1(-KTS) = WT1(-KTS) (mouse, UniProt P22561-4 1-446); experiment: EMSA; blocked by 10-fold excess self competitor; EMSA conditions as described previously (ref. 48); buffer, salt, pH and temperature not given; details: protein: ivt; label: 32P (as probe); 5' overhang 4 nt (GGAT on strand 1, GATC on strand 2)
Sequence of WT1(-KTS) (P22561 other isoform, or with tags, fused parts or gaps): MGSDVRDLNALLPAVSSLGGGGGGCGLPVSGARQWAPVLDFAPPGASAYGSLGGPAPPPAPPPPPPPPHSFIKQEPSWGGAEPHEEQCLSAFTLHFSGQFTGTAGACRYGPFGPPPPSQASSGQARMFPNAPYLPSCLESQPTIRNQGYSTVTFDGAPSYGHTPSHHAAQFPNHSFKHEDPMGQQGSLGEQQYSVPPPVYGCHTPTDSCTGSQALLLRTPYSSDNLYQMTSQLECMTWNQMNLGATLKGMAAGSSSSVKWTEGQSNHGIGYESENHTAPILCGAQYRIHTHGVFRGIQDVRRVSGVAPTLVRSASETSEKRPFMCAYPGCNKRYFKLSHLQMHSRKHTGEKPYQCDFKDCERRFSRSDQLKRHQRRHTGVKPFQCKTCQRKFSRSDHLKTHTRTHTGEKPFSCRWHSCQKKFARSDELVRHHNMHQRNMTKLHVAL

WT1(+KTS) = WT1(+KTS) (mouse, UniProt P22561 1-449); experiment: as above; details: protein: ivt; label: 32P (as probe); 5' overhang 4 nt (GGAT on strand 1, GATC on strand 2)
Sequence of WT1(+KTS) (P22561 whole entry): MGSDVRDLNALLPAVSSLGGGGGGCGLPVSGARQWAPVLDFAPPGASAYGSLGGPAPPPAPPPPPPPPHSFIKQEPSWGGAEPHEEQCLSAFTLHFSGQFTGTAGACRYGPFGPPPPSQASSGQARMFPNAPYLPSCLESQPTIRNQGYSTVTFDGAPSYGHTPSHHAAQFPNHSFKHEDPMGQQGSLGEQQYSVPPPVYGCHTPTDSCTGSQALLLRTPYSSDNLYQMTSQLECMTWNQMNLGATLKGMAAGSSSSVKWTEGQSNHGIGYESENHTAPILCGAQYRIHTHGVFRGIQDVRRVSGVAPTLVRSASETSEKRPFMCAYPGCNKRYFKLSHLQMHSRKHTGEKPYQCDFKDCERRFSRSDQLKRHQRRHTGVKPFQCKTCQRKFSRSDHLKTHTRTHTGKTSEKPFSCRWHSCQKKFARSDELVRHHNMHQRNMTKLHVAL

GATA4 [2] = target: T1, GATA4 (UniProt Q08369 1-441); experiment: competition; competitor of labeled GATA site 1; EMSA conditions as described previously (ref. 48); buffer, salt, pH and temperature not given; details: protein: ivt; 5' overhang 4 nt (GATC) both ends
T1 sequence (Q08369 whole entry): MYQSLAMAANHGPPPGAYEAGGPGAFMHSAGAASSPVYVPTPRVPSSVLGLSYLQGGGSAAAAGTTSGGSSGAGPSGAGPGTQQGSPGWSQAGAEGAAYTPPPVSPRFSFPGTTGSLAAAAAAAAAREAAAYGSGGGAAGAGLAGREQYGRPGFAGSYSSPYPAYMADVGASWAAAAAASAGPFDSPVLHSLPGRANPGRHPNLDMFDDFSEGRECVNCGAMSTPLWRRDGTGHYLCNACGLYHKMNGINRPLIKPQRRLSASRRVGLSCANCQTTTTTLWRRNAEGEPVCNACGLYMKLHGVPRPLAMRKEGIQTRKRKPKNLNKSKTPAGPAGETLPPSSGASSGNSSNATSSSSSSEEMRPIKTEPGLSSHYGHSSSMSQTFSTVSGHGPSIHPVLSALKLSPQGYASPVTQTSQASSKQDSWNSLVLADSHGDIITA

GATA4 [3] = target: T1, GATA4; experiment: EMSA; EMSA conditions as described previously (ref. 48); buffer, salt, pH and temperature not given; details: protein: ivt; label: 32P (as probe); 5' overhang 4 nt (GATC) both ends

Sequence of WT1(+KTS) overexpressed in HeLa cells (mouse) (P22561 whole entry): as the sequence (P22561 whole entry) above

luciferase reporter, -1090 bp mouse Sry promoter, co-transfected HeLa cells, fold activation over control [1]: 30 fold
luciferase reporter, -1400 bp pig SRY promoter, co-transfected HeLa cells, fold activation over control [1]: 50 fold
Molecule: GATA4 overexpressed in HeLa cells (from UniProt P46152 1-440) (natural protein)

B1: human AMH distal WT1 element (dsDNA)
DNA 1: GGATCACTGGGGAGGGAGATAGGA
DNA 2: GATCTCCTATCTCCCTCCCCAGTG
binding result (WT1(-KTS)): binds
binding result (WT1(+KTS)): binds

B2: pig SRY GATA site 4 (dsDNA)
DNA 1: GATCCCCAAGGTTATCTGTTTTTA
DNA 2: GATCTAAAAACAGATAACCTTGGG
binding result (GATA4 [2]): binds

B3: pig SRY GATA site 3 (dsDNA)
DNA 1: GATCCACATACTGATAATCATCAA
DNA 2: GATCTTGATGATTATCAGTATGTG
binding result (GATA4 [2]): binds

B4: pig SRY GATA site 1 (dsDNA)
DNA 1: GATCCGCCTTATTATCATAATAAA
DNA 2: GATCTTTATTATGATAATAAGGCG
binding result (GATA4 [3]): binds

B5: pig SRY GATA site 2 (dsDNA)
DNA 1: GATCCATTGGGTTATCTTGAATCA
DNA 2: GATCTGATTCATGATAACCCAATG
binding result (GATA4 [2]): binds
